Results as given in PMC10873366.

Assays:
[1] = molecular target: Sox2 N-terminal domain and DBD (N-DBD); assay: NMR; residue Ala 287; settings: domain or fragment; Limits are not printed. They are inferred from the C-IDR label position 120, the +9/-9 charge count, and 180 observable HSQC peaks (198 residues minus 17 Pro and the N-terminal residue). The NMR sample was 15N-labelled or unlabelled. The His6-SUMO tag was removed. The smFRET version carries dyes at 120 and 265. Limits are not printed. They are inferred from 109 expected HSQC peaks (119 residues m); modification not given
[2] = molecular target: Sox2 N-terminal domain and DBD (N-DBD); assay: NMR; residue Ser 290; settings: domain or fragment; Limits are not printed. They are inferred from the C-IDR label position 120, the +9/-9 charge count, and 180 observable HSQC peaks (198 residues minus 17 Pro and the N-terminal residue). The NMR sample was 15N-labelled or unlabelled. The His6-SUMO tag was removed. The smFRET version carries dyes at 120 and 265. Limits are not printed. They are inferred from 109 expected HSQC peaks (119 residues m); modification not given

Sox2 N-terminal domain and DBD (N-DBD), sequence (chain, as listed by the source): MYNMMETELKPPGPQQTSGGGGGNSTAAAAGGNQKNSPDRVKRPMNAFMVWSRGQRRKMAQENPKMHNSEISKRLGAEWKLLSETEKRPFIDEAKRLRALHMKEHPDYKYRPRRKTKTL

- Kd [1]: 93 µM
- Kd [2]: 74 µM
B1: Sox2 C-terminal intrinsically disordered region (C-IDR) (protein)
chain: MKKDKYTLPGGLLAPGGNSMASGVGVGAGLGAGVNQRMDSYAHMNGWSNGSYSMMQDQLGYPQHPGLNAHGAAQMQPMHRYDVSALQYNSMTSSQTYMNGSPTYSMSYSQQGTPGMALGSMGSVVKSEASSSPPVVTSSSHSRAPCQAGDLRDMISMYLPGAEVPEPAAPSRLHMSQHYQSGPVPGTAINGTLPLSHM
